T1: IL-2-Rβ (IL-2 receptor β chain, R&D Systems) (UniProt P14784 27-239)
T1 construct: also called IL-2-sRβ
T1 sequence (looked up): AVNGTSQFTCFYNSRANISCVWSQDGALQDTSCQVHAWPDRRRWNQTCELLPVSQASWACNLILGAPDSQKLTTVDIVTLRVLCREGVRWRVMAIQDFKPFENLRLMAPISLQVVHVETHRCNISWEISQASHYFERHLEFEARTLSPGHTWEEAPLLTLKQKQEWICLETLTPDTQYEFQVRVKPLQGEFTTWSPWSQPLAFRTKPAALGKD


Legend:
human recombinant IL-17A = human recombinant IL-17A (human, UniProt Q16552 24-155, limits assumed); assay: cell-based or functional assay
[1] = molecular target: T1, IL-2-Rβ (IL-2 receptor β chain, R&D …); assay: SPR (Biacore), fusion captured on anti-human F(ab)2, 100 nM IL-2-Rβ injected
Lysozyme (R&D Systems) = Lysozyme (R&D Systems) (UniProt P00698 19-147); assay: SPR, Fab construct captured via anti-human F(ab)2, lysozyme 0.1-10 nM, Langmuir model
Method: Briefly, the carboxymethyl dextran surface was activated with a fresh 1:1 (v/v) mixture of 50 mM N-hydroxysuccimide and 200 mM 1-ethyl-3-(3-dimethylaminopropyl)-carbodiimide for 5 minutes at a flow rate of 10 μL/min. The anti-human F(ab)₂ in 10 mM acetate pH 5.0 buffer was covalently coupled to chips at 50 μg/mL in a 10 minute pulse at the same flow rate. Finally the surface was deactivated with a 10 minute pulse of 1 M ethanolamine.HCl pH 8.5. A reference flow cell was prepared on the chip by omitting the protein from the above procedure.
A typical SPR cycle comprised a flow rate of 10 μL/min with HBS-EP as running buffer and diluted supernatant was injected for 1 min to capture the antibody/Fab fusion protein. This was followed by a 30 μl injection of the diluted cognate ligand or receptor or buffer control. The subsequent dissociation phase was monitored for at least 3 min. […] In some experiments a specificity control cycle was included where the cognate receptor/ligand (the insert portion of the antibody/Fab fusion protein) was pre-mixed with a 2-fold molar excess of its binding partner. Each cycle terminated with a regeneration step comprising two 10 μL injections of 40 mM HCl interspersed with a 5 μL injection of 5 mM NaOH.
Following capture of the Fab construct, 90 μl of the cognate ligand or buffer control was injected followed by a dissociation phase of 180 sec. A ligand binding over a range of concentrations (0.1, 0.2, 0.5, 1, 2, 5, & 10 nM) was tested. Sensorgrams were corrected for drift by subtraction of a zero ligand sensorgram and for non-specific interaction by subtraction of the wild type Fab corrected sensorgram. Affinity constants were calculated from separate dissociation and association rate constants that were fitted to the corrected sensorgrams using the Langmuir model of the BIAevaluation software (version 4.1.1).

Binder | binding result [1] | Kd (Lysozyme (R&D Systems)) | also measured
CA645 Fab-Fwk3 CA497 dsscFv (vLvH) (bispecific antibody) heavy: EVQLLESGGGLVQPGGSLRLSCAVSGIDLSNYAINWVRQAPGKGLEWIGIIWASGTTFYATWAKGRFTISRDNSGGGGSGGGGSAIQLTQSPSSLSASVGDRVTITCKASESVSSSMYSYMHWYQQKPGKAPKLLIYRASNLESGVPSRFSGSGSGTDFTLTISSLQPEDFATYYCQQSWTAPRTFGCGTKVEIKGGGGSGGGGSGGGGSEVQLVESGGGLVKPGGSLRLSCAASGVIFSDYYMAWVRQAPGKCLEWVASINFNADISYYRESVKGRFTISRDDSKNTLYLQMNSLKTEDTAVYYCTTDANRQNYDWFAYWGQGTLVTVSSGGGGSGGGGSKNTVYLQMNSLRAEDTAVYYCARTVPGYSTAPYFDLWGQGTLVTVSSASTKGPSVFPLAPSSKSTSGGTAALGCLVKDYFPEPVTVSWNSGALTSGVHTFPAVLQSSGLYSLSSVVTVPSSSLGTQTYICNVNHKPSNTKVDKKVEPKSC light: DIQMTQSPSSVSASVGDRVTITCQSSPSVWSNFLSWYQQKPGKAPKLLIYEASKLTSGVPSRFSGSGSGTDFTLTISSLQPEDFATYYCGGGYSSISDTTFGGGTKVEIKRTVAAPSVFIFPPSDEQLKSGTASVVCLLNNFYPREAKVQWKVDNALQSGNSQESVTEQDSKDSTYSLSSTLTLSKADYEKHKVYACEVTHQGLSSPVTKSFNRGEC | – | – | IL-17A EC50 (ng/ml), neutralisation of IL-17A (IL-6 secretion by Hela cells), with HSA (human recombinant IL-17A): 10.8 ng/mL; IL-17A EC50 (ng/ml), neutralisation of IL-17A (IL-6 secretion by Hela cells), without HSA (human recombinant IL-17A): 10.5 ng/mL
CA645/IL-15Fwk3 with 2xG4S linker (Fab, also called CA645 Fab heavy chain with human IL-15 inserted into framework 3 with 2xG4S linker) heavy: not shown light: DIQMTQSPSSVSASVGDRVTITCQSSPSVWSNFLSWYQQKPGKAPKLLIYEASKLTSGVPSRFSGSGSGTDFTLTISSLQPEDFATYYCGGGYSSISDTTFGGGTKVEIKRTVAAPSVFIFPPSDEQLKSGTASVVCLLNNFYPREAKVQWKVDNALQSGNSQESVTEQDSKDSTYSLSSTLTLSKADYEKHKVYACEVTHQGLSSPVTKSFNRGEC | binds | – | –
CA645/IL-15Fwk3 with bovine long linker (Fab, also called CA645 Fab heavy chain with human IL-15 inserted into framework 3 with bovine long linker) heavy: not shown light: DIQMTQSPSSVSASVGDRVTITCQSSPSVWSNFLSWYQQKPGKAPKLLIYEASKLTSGVPSRFSGSGSGTDFTLTISSLQPEDFATYYCGGGYSSISDTTFGGGTKVEIKRTVAAPSVFIFPPSDEQLKSGTASVVCLLNNFYPREAKVQWKVDNALQSGNSQESVTEQDSKDSTYSLSSTLTLSKADYEKHKVYACEVTHQGLSSPVTKSFNRGEC | binds | – | –
CA645 Fab-Fwk3 CA497 dsscFv (vHvL) (bispecific antibody) heavy: EVQLLESGGGLVQPGGSLRLSCAVSGIDLSNYAINWVRQAPGKGLEWIGIIWASGTTFYATWAKGRFTISRDNSGGGGSGGGGSEVQLVESGGGLVKPGGSLRLSCAASGVIFSDYYMAWVRQAPGKCLEWVASINFNADISYYRESVKGRFTISRDDSKNTLYLQMNSLKTEDTAVYYCTTDANRQNYDWFAYWGQGTLVTVSSGGGGSGGGGSGGGGSAIQLTQSPSSLSASVGDRVTITCKASESVSSSMYSYMHWYQQKPGKAPKLLIYRASNLESGVPSRFSGSGSGTDFTLTISSLQPEDFATYYCQQSWTAPRTFGCGTKVEIKGGGGSGGGGSKNTVYLQMNSLRAEDTAVYYCARTVPGYSTAPYFDLWGQGTLVTVSSASTKGPSVFPLAPSSKSTSGGTAALGCLVKDYFPEPVTVSWNSGALTSGVHTFPAVLQSSGLYSLSSVVTVPSSSLGTQTYICNVNHKPSNTKVDKKVEPKSC light: DIQMTQSPSSVSASVGDRVTITCQSSPSVWSNFLSWYQQKPGKAPKLLIYEASKLTSGVPSRFSGSGSGTDFTLTISSLQPEDFATYYCGGGYSSISDTTFGGGTKVEIKRTVAAPSVFIFPPSDEQLKSGTASVVCLLNNFYPREAKVQWKVDNALQSGNSQESVTEQDSKDSTYSLSSTLTLSKADYEKHKVYACEVTHQGLSSPVTKSFNRGEC | – | – | IL-17A EC50 (ng/ml), neutralisation of IL-17A (IL-6 secretion by Hela cells), with HSA (human recombinant IL-17A): 8.7 ng/mL; IL-17A EC50 (ng/ml), neutralisation of IL-17A (IL-6 secretion by Hela cells), without HSA (human recombinant IL-17A): 10.6 ng/mL
CA645/IL-15Fwk3 with bovine short linker (Fab, also called CA645 Fab heavy chain with human IL-15 inserted into framework 3 with bovine short linker) heavy: not shown light: DIQMTQSPSSVSASVGDRVTITCQSSPSVWSNFLSWYQQKPGKAPKLLIYEASKLTSGVPSRFSGSGSGTDFTLTISSLQPEDFATYYCGGGYSSISDTTFGGGTKVEIKRTVAAPSVFIFPPSDEQLKSGTASVVCLLNNFYPREAKVQWKVDNALQSGNSQESVTEQDSKDSTYSLSSTLTLSKADYEKHKVYACEVTHQGLSSPVTKSFNRGEC | binds | – | –
HyHEL5/VHH D3L11Fwk3 (anti-lysozyme HyHEL5 Fab with anti-lysozyme VHH D3L11 inserted into framework 3 of the light chain) (bispecific antibody, also called Antibody: HyHEL5 Fab, Framework 3 Insert: VHH D3L11) heavy: EVQLQQSGAELMKPGASVKISCKASGYTFSDYWIEWVKQRPGHGLEWIGEILPGSGSTNYHERFKGKATFTADTSSSTAYMQLNSLTSEDSGVYYCLHGNYDFDGWGQGTTLTVSSASTKGPSVFPLAPSSKSTSGGTAALGCLVKDYFPEPVTVSWNSGALTSGVHTFPAVLQSSGLYSLSSVVTVPSSSLGTQTYICNVNHKPSNTKVDKKVEPKSC light: DIVLTQSPAIMSASPGEKVTMTCSASSSVNYMYWYQQKSGTSPKRWIYDTSKLASGVPVRFSGSGSGSGGGGSDVQLVESGGGSVQAGGSLRLSCAASGSTDSIEYMTWFRQAPGKAREGVAALYTHTGNTYYTDSVKGRFTISQDKAKNMAYLRMDSVKSEDTAIYTCGATRKYVPVRFALDQSSYDYWGQGTQVTVSSGGGGSGGGGSGGGGSTSYSLTISSMETEDAATYYCQQWGRNPTFGGGTKLEIKRTVAAPSVFIFPPSDEQLKSGTASVVCLLNNFYPREAKVQWKVDNALQSGNSQESVTEQDSKDSTYSLSSTLTLSKADYEKHKVYACEVTHQGLSSPVTKSFNRGEC | – | 0.026 nM | –
HyHEL5/VHH15Fwk3 (anti-lysozyme HyHEL5 Fab with anti-IL-6 VHH15 inserted into framework 3 of the light chain) (bispecific antibody, also called Antibody: HyHEL5 Fab, Framework 3 Insert: VHH15) heavy: EVQLQQSGAELMKPGASVKISCKASGYTFSDYWIEWVKQRPGHGLEWIGEILPGSGSTNYHERFKGKATFTADTSSSTAYMQLNSLTSEDSGVYYCLHGNYDFDGWGQGTTLTVSSASTKGPSVFPLAPSSKSTSGGTAALGCLVKDYFPEPVTVSWNSGALTSGVHTFPAVLQSSGLYSLSSVVTVPSSSLGTQTYICNVNHKPSNTKVDKKVEPKSC light: DIVLTQSPAIMSASPGEKVTMTCSASSSVNYMYWYQQKSGTSPKRWIYDTSKLASGVPVRFSGSGSGSGGGGSQVQLVESGGGSVQAGGSLRLSCVAASGYTGCTYDMRWYRQAPGKEREFVSGIDSDGRATYADSVKGRFTISQSNAKIAVYLQMDSLKLEDTAMYYCNLQCLRYPGEYYWGQGTQVTVSSGGGGSGGGGSGGGGSTSYSLTISSMETEDAATYYCQQWGRNPTFGGGTKLEIKRTVAAPSVFIFPPSDEQLKSGTASVVCLLNNFYPREAKVQWKVDNALQSGNSQESVTEQDSKDSTYSLSSTLTLSKADYEKHKVYACEVTHQGLSSPVTKSFNRGEC | – | 0.31 nM | –
CA645/VHH D3L11Fwk3 (CA645 Fab with anti-lysozyme VHH D3L11 inserted into framework 3 of the light chain) (bispecific antibody, also called Antibody: CA645 Fab, Framework 3 Insert: VHH D3L11) heavy: EVQLLESGGGLVQPGGSLRLSCAVSGIDLSNYAINWVRQAPGKGLEWIGIIWASGTTFYATWAKGRFTISRDNSKNTVYLQMNSLRAEDTAVYYCARTVPGYSTAPYFDLWGQGTLVTVSSASTKGPSVFPLAPSSKSTSGGTAALGCLVKDYFPEPVTVSWNSGALTSGVHTFPAVLQSSGLYSLSSVVTVPSSSLGTQTYICNVNHKPSNTKVDKKVEPKSC light: DIQMTQSPSSVSASVGDRVTITCQSSPSVWSNFLSWYQQKPGKAPKLLIYEASKLTSGVPSRFSGSGSGSGGGGSDVQLVESGGGSVQAGGSLRLSCAASGSTDSIEYMTWFRQAPGKAREGVAALYTHTGNTYYTDSVKGRFTISQDKAKNMAYLRMDSVKSEDTAIYTCGATRKYVPVRFALDQSSYDYWGQGTQVTVSSGGGGSGGGGSGGGGSTDFTLTISSLQPEDFATYYCGGGYSSISDTTFGGGTKVEIKRTVAAPSVFIFPPSDEQLKSGTASVVCLLNNFYPREAKVQWKVDNALQSGNSQESVTEQDSKDSTYSLSSTLTLSKADYEKHKVYACEVTHQGLSSPVTKSFNRGEC | – | 0.48 nM | –
